# Reference: patent US20260242478A1 (published 2026)
# Where no end group is shown, it is not given here.
# Legend:
# PSMA Fab [1] = target: T1, PSMA Fab; assay: phage binding ELISA; biotinylated PSMA Fab on neutravidin plate, clonal phage supernatant, anti-M13 HRP detection; column read as anti-PSMA Fab without PSMA antigen
# T1 construct: also called Anti-PSMA Fab; 006 PSMA Fab
# Method: (§1) Clonal phage were harvested as crude supernatants and screened via standard ELISAs. […] Prior to the addition of clonal phage. wells were incubated with blocking buffer and PSMA antigen or blocking buffer alone. Without washing or aspirating, clonal phage supernatants were then added to the wells and incubated for a short time. Wells were then washed followed by detection of bound phage using a horse radish conjugated anti-M13 antibody.
# PSMA Fab [2] = target: T1, PSMA Fab; assay: phage binding ELISA; biotinylated PSMA Fab on neutravidin plate, clonal phage supernatant, anti-M13 HRP detection; column read as anti-PSMA Fab pre-incubated with PSMA antigen as competitor
# Method: as §1
# PSMA Fab (006 PSMA Fab) [3] = target: T2, PSMA Fab (006 PSMA Fab) (biotinylated (site not given)); assay: clonal phage ELISA; biotinylated PSMA Fab on neutravidin plate, blocking buffer alone; anti-M13 HRP detection;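 also: crude clonal phage supernatants added without washing to wells pretreated with blocking buffer with or without PSMA antigen, short incubation, then washed before detecting bound phage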
# T2 construct: also called Anti-PSMA Fab; anti-PSMA Fab
# PSMA Fab (006 PSMA Fab) [4] = target: T2, PSMA Fab (006 PSMA Fab); assay: clonal phage ELISA; biotinylated PSMA Fab on neutravidin plate, wells pre-incubated with PSMA antigen as competitor; anti-M13 HRP detection;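 also: crude clonal phage supernatants added to antigen-treated wells without a wash, incubated briefly, then bound phage read out via horse radish–conjugated anti-M13 antibody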
# Method: as §1
# PSMA Fab [5] = target: T3, PSMA Fab; assay: clonal phage ELISA on biotinylated PSMA Fab captured on neutravidin plates, anti-M13-HRP detection; blocking buffer alone
# T3 construct: Biotinylated and captured on neutravidin plates in the phage ELISA; also called Anti-PSMA Fab; 006 PSMA Fab
# Method: as §1
Binder,phage binding ELISA signal (PSMA Fab [1]),phage binding ELISA signal (PSMA Fab [2]),"Phage binding ELISA signal, Anti-PSMA Fab (PSMA Fab [5])",other results
SVTWCIPPWMCELS [Phage-2600],1.04,0.0673,–,–
VLNWCTPPWMCLGI [Phage-2589],1.06,0.107,–,–
DGIWCTPRWMCEGM [Phage-2593],1.05,0.0865,–,–
LVKWCVPDWMCQET [Phage-2598],1.04,0.0671,–,–
"DMKWCTPAWMCQSS (cysteine pairing not given here; also: displayed on phage pIII, linker not given here, Clonal phage of the Peptide-180 library, tested as crude phage supernatant; not shown: pIII filament protein of the bacteriophage) [Phage-2635]",–,–,–,"Phage binding ELISA signal, Anti-PSMA Fab (PSMA Fab (006 PSMA Fab) [3]): 0.966; Phage binding ELISA signal, Anti-PSMA Fab with PSMA antigen (PSMA Fab (006 PSMA Fab) [4]): 0.0701"
"IVKWCTPHWMCSGW (cysteine pairing not given here; also: fused to phage pIII, linker and fusion site not given here, Clonal phage of the Peptide-180 library, tested as crude supernatant; not shown: pIII coat protein of the bacteriophage to which the peptide is fused) [Phage-2529]",–,–,1.17,–
MVKWCTPPWMCNFE [Phage-2595],1.05,0.121,–,–
"LMNWCIPSWMCDVE (cysteine pairing not given here; also: fused to phage pIII, linker and fusion site not given here, Clonal phage of the Peptide-180 library, tested as crude supernatant; not shown: pIII coat protein of the bacteriophage to which the peptide is fused) [Phage-2539]",–,–,1.15,–
HFNWCTPSWMCDVL [Phage-2592],1.05,0.118,–,–
LSKWCIPDWMCISS [Phage-2599],1.04,0.0618,–,–
"DDRWCIPTWMCFLD (cysteine pairing not given here; also: displayed on phage pIII, linker not given here, Clonal phage of the Peptide-180 library, tested as crude phage supernatant; not shown: pIII filament protein of the bacteriophage) [Phage-2636]",–,–,–,"Phage binding ELISA signal, Anti-PSMA Fab (PSMA Fab (006 PSMA Fab) [3]): 0.965; Phage binding ELISA signal, Anti-PSMA Fab with PSMA antigen (PSMA Fab (006 PSMA Fab) [4]): 0.0733"
MFKWCTPSWMCERV [Phage-2596],1.05,0.176,–,–
"PTKWCIPEWMCVES (cysteine pairing not given here; also: fused to phage pIII, linker and fusion site not given here, Clonal phage of the Peptide-180 library, tested as crude supernatant; not shown: pIII coat protein of the bacteriophage to which the peptide is fused) [Phage-2541]",–,–,1.15,–
"DLKWCFPDWMCQVG (cysteine pairing not given here; also: fused to phage pIII, linker and fusion site not given here, Clonal phage of the Peptide-180 library, tested as crude supernatant; not shown: pIII coat protein of the bacteriophage to which the peptide is fused) [Phage-2542]",–,–,1.15,–
"VTHWCIPEWMCVVE (cysteine pairing not given here; also: fused to phage pIII, linker and fusion site not given here, Clonal phage of the Peptide-180 library, tested as crude supernatant; not shown: pIII coat protein of the bacteriophage to which the peptide is fused) [Phage-2530]",–,–,1.17,–
"EMKWCIPQWMCADS (cysteine pairing not given here; also: fused to phage pIII, linker and fusion site not given here, Clonal phage of the Peptide-180 library, tested as crude supernatant; not shown: pIII coat protein of the bacteriophage to which the peptide is fused) [Phage-2537]",–,–,1.16,–
HPQLCIPSWMCNVW [Phage-2594],1.05,0.105,–,–
"VSPKCIPPWMCSYV (cysteine pairing not given here; also: fused to phage pIII, linker and fusion site not given here, Clonal phage of the Peptide-180 library, tested as crude supernatant; not shown: pIII coat protein of the bacteriophage to which the peptide is fused) [Phage-2536]",–,–,1.16,–

Binder,phage binding ELISA signal (PSMA Fab [1]),phage binding ELISA signal (PSMA Fab [2]),"Phage binding ELISA signal, Anti-PSMA Fab (PSMA Fab [5])",other results
MIGWCTPSWMCSGF [Phage-2588],1.06,0.0716,–,–
"EPKWCVPPWMCAYD (cysteine pairing not given here; also: fused to phage pIII, linker and fusion site not given here, Clonal phage of the Peptide-180 library, tested as crude supernatant; not shown: pIII coat protein of the bacteriophage to which the peptide is fused) [Phage-2538]",–,–,1.16,–
"EHRWCIPVWMCEKS (cysteine pairing not given here; also: fused to phage pIII, linker and fusion site not given here, Clonal phage of the Peptide-180 library, tested as crude supernatant; not shown: pIII coat protein of the bacteriophage to which the peptide is fused) [Phage-2532]",–,–,1.16,–
ETKLCKPMWMCALL (cysteine pairing not given here; also: displayed on phage as pIII fusion) [Phage-2602],1.03,0.126,–,–
"YEKWCTPAWMCDFV (cysteine pairing not given here; also: fused to phage pIII, linker and fusion site not given here, Clonal phage of the Peptide-180 library, tested as crude supernatant; not shown: pIII coat protein of the bacteriophage to which the peptide is fused) [Phage-2528]",–,–,1.17,–
"LGHWCTPPWMCTES (cysteine pairing not given here; also: fused to phage pIII, linker and fusion site not given here, Clonal phage of the Peptide-180 library, tested as crude supernatant; not shown: pIII coat protein of the bacteriophage to which the peptide is fused) [Phage-2527]",–,–,1.17,–
VHKWCTPAWMCEVH [Phage-2597],1.04,0.0662,–,–
"VPKWCIPVWMCEVM (cysteine pairing not given here; also: fused to phage pIII, linker and fusion site not given here, Clonal phage of the Peptide-180 library, tested as crude supernatant; not shown: pIII coat protein of the bacteriophage to which the peptide is fused) [Phage-2534]",–,–,1.16,–
MPRWCTPAWMCEAI [Phage-2590],1.05,0.063,–,–
TDKWCVPEWMCMEF [Phage-2591],1.05,0.0773,–,–
IEKWCMPSWMCEWN [Phage-2601],1.03,0.0609,–,–
"DWKWCTPAWMCSTE (cysteine pairing not given here; also: fused to phage pIII, linker and fusion site not given here, Clonal phage of the Peptide-180 library, tested as crude supernatant; not shown: pIII coat protein of the bacteriophage to which the peptide is fused) [Phage-2535]",–,–,1.16,–
"EMKWCTPEWMCIGL (cysteine pairing not given here; also: fused to phage pIII, linker and fusion site not given here, Clonal phage of the Peptide-180 library, tested as crude supernatant; not shown: pIII coat protein of the bacteriophage to which the peptide is fused) [Phage-2540]",–,–,1.15,–
"PVPLCRPPWMCQSV (cysteine pairing not given here; also: fused to phage pIII, linker and fusion site not given here, Clonal phage of the Peptide-180 library, tested as crude supernatant; not shown: pIII coat protein of the bacteriophage to which the peptide is fused) [Phage-2533]",–,–,1.16,–
"YEKWCIPRWMCEAN (cysteine pairing not given here; also: fused to phage pIII, linker and fusion site not given here, Clonal phage of the Peptide-180 library, tested as crude supernatant; not shown: pIII coat protein of the bacteriophage to which the peptide is fused) [Phage-2531]",–,–,1.16,–
GMKWCTPEWMCQIV [Phage-2603],1.03,0.28,–,–
"TDKLCRPPWMCELM (cysteine pairing not given here; also: displayed on phage pIII, linker not given here, Clonal phage of the Peptide-180 library, tested as crude phage supernatant; not shown: pIII filament protein of the bacteriophage) [Phage-2634]",–,–,–,"Phage binding ELISA signal, Anti-PSMA Fab (PSMA Fab (006 PSMA Fab) [3]): 0.966; Phage binding ELISA signal, Anti-PSMA Fab with PSMA antigen (PSMA Fab (006 PSMA Fab) [4]): 0.065"
